{
  "source": "paper PMC7847540",
  "about": "“ClpX Is Essential and Activated by Single-Strand DNA Binding Protein in Mycobacteria” (Journal of Bacteriology, 2020)",
  "biological_target": "the molecule itself",
  "assay": "size-based filtration (300-kDa cutoff filter)",
  "data": [
    {"protein": "N-terminally 6×His-tagged truncated form of ClpX (lacking the first 60 amino acids) (enzyme, ClpX ATPase, M. tuberculosis, lacking the first 60 amino acids; also called hexameric ClpX) not shown", "values": [
      {"measurement": "stoichiometry N", "value": 6}
    ]}
  ]
}
